Literature values, collected in PMC6728138.

How the values were obtained:
[1] = biological target: PVIVIT peptide (synthetic construct)
AKAP79 (Homo sapiens) = AKAP79 (Homo sapiens) (UniProt P24588)
Chain of AKAP79 (Homo sapiens) (P24588 whole entry): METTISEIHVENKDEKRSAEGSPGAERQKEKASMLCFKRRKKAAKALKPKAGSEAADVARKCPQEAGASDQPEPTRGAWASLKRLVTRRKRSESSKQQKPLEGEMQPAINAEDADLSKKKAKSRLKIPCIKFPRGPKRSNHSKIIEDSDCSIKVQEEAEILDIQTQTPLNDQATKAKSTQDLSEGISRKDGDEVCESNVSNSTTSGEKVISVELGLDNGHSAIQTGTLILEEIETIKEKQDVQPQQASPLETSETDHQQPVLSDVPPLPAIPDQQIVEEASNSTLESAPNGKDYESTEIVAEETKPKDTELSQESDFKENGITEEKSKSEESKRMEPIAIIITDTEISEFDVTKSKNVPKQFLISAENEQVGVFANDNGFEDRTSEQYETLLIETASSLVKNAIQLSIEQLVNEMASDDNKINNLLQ

Calcineurin (from UniProt Q08209)
Kd [1]: 500 nM | Kd (AKAP79 (Homo sapiens)): 500 nM
